Measurements from patent US20210403541A1.

Target: PD17(p)PS413 (24AWF) (human)
Test: peptide-coated ELISA (1 µg/ml peptide 24AWF coat, anti-human IgG-HRP, ABTS, OD405)

B1: V5-AFM-hIgG4-S228P (antibody, V domains shown)
VH: EVQLVESGGGLVQPGGSLRLSCAASGFTFSSFALNWVRQAPGKGLEWVGHIRSKTNNYVTFYAASVKGRFTVSRDDSQNTAYLQMNSLKTEDTATYYCVRRGPRDSWFGYWGQGTLVTVSS
VL: DIVMTQSPLSLPVTLGEPASISCRSSQKIVHRNANTYLEWYLQKPGQSPQLLIYTVSNRFSGVPDRFSGSGSGTDFTLKISRVEAEDLGVYYCFQGSYLPLTFGGGTKVEIK
For B1, which EC50 (read off the curve) is on record?
Its EC50 (read off the curve) is 0.05 µg/mL.
